Laboratory results published in the DeepSol protein solubility set.

assay: soluble on expression in E. coli; label from the status in PepcDB or PDB records

Row | Sequence | soluble on expression in E. coli
1 | VVIFFGVILGILIVEYGQKRSFSSWLVEKMFAYRKYKLSKKVDNYKGVETQRNRNIPYHLDNPEEIVGFSTQEYDVNGMQVFIINDQKQSHQPVIYYLYGSVYLRRPEKLHFKTVKHLIQLTNAKVVFPNFPKVPYATYQDVYPKLVEAYQQFCLSNGPSQVSVIGDSSGGGMALAFAKYIRDTKTAPQPKQLILISPWLDVSFKNQAYKDFEAEEAYLDARRLRDIGELWAGGQGNMQLPYVSPLYGDYEDLPEITTFVGTKEIFYPDIMSLHDQLTRQRIANQLIIAEKMIHAYVIFPIREAKQARKQIAELVLKTVEHT | not soluble
2 | MTDWLYRYPKLYPGFLLKRYKRFFADVQLTSGEVVTAHCPNTGPMTGVSKIGSPVQLSQSDNPNRKLAYTLELIQVQEQEPTWVGVNTALPNRVIKLALEKFLFPELRDYTQVKGEVIYGKDKKSRVDFYLTGSEKQSPIYLEVKNTTWTQGNLALFPDTETTRGQKHLRELMEVLPHSRAVMLYFINRGDCPEFAPGDSTDPVYGKLLRQAITVGLEVLPCRFDVSPEGIRYLGLAKLKT | not soluble
3 | MDLSRINTWKSKQLKSFLSSKDAFKADINGHSVLYYAIADNNVRLVCTLLNAGALKNLLDNEFPLHQAATLEDTKIVKILLFSGMDDSQFDDKGNTALYYAVDSGNMQTVKLFVKKNWRLMFYGKTGWKTSFYHAVMLNDVSIVSYFLSEIPSPFDLAILLSCIHTTIKNGHVDMMILLLDYMTSTNTNSLLFIPDIKLAIDNKDIEMLQALFKYDINIYSVNLENVLLDDAEIAKMIIEKHVEYKSDSYTKDLDDVKNNKLDEIISKNEELRLMYVNYVRKNY | not soluble
4 | MGSSHHHHHHSSGRENLYFQGHMMSGHNKWANIKHRKMAQDAKKSKIFTKLIREIIVAAREGGGNIETNPRLRAAVERARAENMPKENIERAIKRGTGELEGVDYQEVIYEGYAPGGVAVYIRALTDNKNRTAQELRHLFNKYGGSLAESGSVSWIFERKGVIEISRDKVKDLEELMMIAIDAGAEDIKDAEDPIQIITAPENLSEVKSKLEEAGYEVEAKVTFIPKNTVKVTGKDAEKVLEFLNALEDMDDVQEVYSNFEMDDKEMEEILSRLEG | soluble
5 | HHHHHHMQHLVLIGFMGSGKSSLAQELGLALKLEVLDTDMIISERVGLSVREIFEELGEDNFRMFEKNLIDELKTLKTPHVISTGGGIVMHENLKGLGTTFYLKMDFETLIKRLNQKEREKRPLLNNLTQAKELFEKRQALYEKNASFIIDARGGLNNSLKQVLQFIA | soluble
6 | MDFHIRKATNSDAEAIQHVATTSWHHTYQDLIPSDVQDDFLKRFYNVETLHNRISATPFAVLEQADKVIGFANFIELEKGKSELAAFYLLPEVTQRGLGTELLEVGMTLFHVPLPMFVNVEKGNETAIHFYKAKGFVQVEEFTEDFYGYPLETIRFNLNHHAFEEE | not soluble
7 | MPLTLTDRYRGSLLGLACGDALGTSVEFKPRGSFPPVTDLLGGGPFNLKAGQWTDDTSMALCLGESLLRKDGFDPADQMGRYLNWWQWGYLSATGECFDIGMTVRQALADYQEHGQPLAGSSDPQTAGNGSLMRLAPVVLFHYPDLAQVREFAGASSRTTHGAAEAIECCQLLAGLIAKALDGASKQQLQRLDAQGFRESKVAALAQGNYLDKTRDQIRGNGYCVDSLEAALWCFQHSDSYAEAVLAAANLGDDADTTAAIVGQLAGAFYGAQGIPPHWLAKLHMGEEIQAMADDLLAAARRRAPARPLHGSCLCKAVQYRVDRLDMPIGHCHCQTCRKAHAAAFASTAGVMREHFQWTQGQERLSTYESSPGKLRHFCSVCGSHLLAERPGQPHVILRVATLDDDPGQTPQVHIWTSHDVPWLADEALQRWPEWQPSRGLEHHHHHH | not soluble
8 | MARVAIPSVGKDLSSMVSDRFARAEYFIIYDTESGNVEVVENTIADAHGTGPKVVQSLVSKGVEYLIASNVGRNAFETLKAAGVKVYRFEGGTVQEAIDAFSEGRLEELTTFTREG | soluble
9 | MPNAGELASLMEENAMPKVVVRNFAISLDGYGAGPDQSLQNPLGVKGEELHQWAFKTRTFHRMFGKEGGSTGTDENFSEKSFENIGAWVLGRNMFGPVRGAWPDESWKGWWGEEPPYHVPVFVLTHHARPSFTMKGGTEFHFVTDGIEAALDRALTAANGKDVRIGGGVSTIRQYMAAGMIDELHLALAPVFLGKGEQLFEGLDLPALGYRCTGTVAGEGATHLIIEKV | not soluble
